These results are taken from article PMC3553014, “Albumin Stimulates the Activity of the Human UDP-Glucuronosyltransferases 1A7, 1A8, 1A10, 2A1 and 2B15, but the Effects Are Enzyme and Substrate Dependent” (PLoS ONE, 2013).

One series has as its target T1, UGT1A8 (Homo sapiens, UniProt Q9HAW9).
T1 sequence (Q9HAW9 26-530): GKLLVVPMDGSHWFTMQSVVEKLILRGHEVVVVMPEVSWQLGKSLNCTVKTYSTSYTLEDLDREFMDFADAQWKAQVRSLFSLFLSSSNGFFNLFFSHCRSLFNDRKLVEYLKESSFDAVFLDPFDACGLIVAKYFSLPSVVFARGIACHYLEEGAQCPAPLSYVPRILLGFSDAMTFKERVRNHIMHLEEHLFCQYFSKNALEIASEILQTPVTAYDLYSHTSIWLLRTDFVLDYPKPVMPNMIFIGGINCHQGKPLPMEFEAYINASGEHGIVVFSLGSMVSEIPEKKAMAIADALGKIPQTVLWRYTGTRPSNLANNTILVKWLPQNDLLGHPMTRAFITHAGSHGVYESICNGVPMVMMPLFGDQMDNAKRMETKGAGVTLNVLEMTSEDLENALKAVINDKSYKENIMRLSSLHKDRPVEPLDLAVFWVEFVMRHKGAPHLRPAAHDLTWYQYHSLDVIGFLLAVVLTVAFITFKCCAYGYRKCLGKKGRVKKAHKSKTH
Briefly: UGT1A8-catalyzed glucuronidation, enzyme kinetics. Conditions: 1% DMSO; entacapone glucuronidation; absence and presence of 0.1% BSA.

Substrate in series [1]: CCN(CC)C(=O)/C(C#N)=C/c1cc(O)c(O)c([N+](=O)[O-])c1
As to the kind of experiment: purified protein, by the assay type. Conditions: pH 7.4.

Substrate in series [2]: Cc1cc(=O)oc2cc(O)ccc12
As to the kind of experiment: purified protein, by the assay type. Conditions: pH 7.4.

Substrate in series [3]: Oc1cccc2ccccc12
Briefly: purified protein, by the assay type. Conditions: pH 7.4.

`C[S+](C)[O-]` [DMSO, Dimethyl sulfoxide]: the “reduction of the UGT activity” value at UGT1A8 is recorded as ≤ 15%.

B1: UGT1A8 (Homo sapiens) (protein)
chain: GKLLVVPMDGSHWFTMQSVVEKLILRGHEVVVVMPEVSWQLGKSLNCTVKTYSTSYTLEDLDREFMDFADAQWKAQVRSLFSLFLSSSNGFFNLFFSHCRSLFNDRKLVEYLKESSFDAVFLDPFDACGLIVAKYFSLPSVVFARGIACHYLEEGAQCPAPLSYVPRILLGFSDAMTFKERVRNHIMHLEEHLFCQYFSKNALEIASEILQTPVTAYDLYSHTSIWLLRTDFVLDYPKPVMPNMIFIGGINCHQGKPLPMEFEAYINASGEHGIVVFSLGSMVSEIPEKKAMAIADALGKIPQTVLWRYTGTRPSNLANNTILVKWLPQNDLLGHPMTRAFITHAGSHGVYESICNGVPMVMMPLFGDQMDNAKRMETKGAGVTLNVLEMTSEDLENALKAVINDKSYKENIMRLSSLHKDRPVEPLDLAVFWVEFVMRHKGAPHLRPAAHDLTWYQYHSLDVIGFLLAVVLTVAFITFKCCAYGYRKCLGKKGRVKKAHKSKTH
As a reminder, the Vmax is the top rate of the reaction or transport when substrate is in excess. As to B1, the K0.5 in series [1] is recorded as 73.1±3.7(65.4–80.7) uM; in series [2], 134±9(115–154) uM. Also, the Vmax in series [1] and in series [2] was 0.0012 µmol/min/mg in each case.

B2: UGT1A7 (Homo sapiens) (protein)
chain: GKLLVVPMDGSHWFTMQSVVEKLILRGHEVVVVMPEVSWQLGRSLNCTVKTYSTSYTLEDQDREFMVFADARWTAPLRSAFSLLTSSSNGIFDLFFSNCRSLFNDRKLVEYLKESCFDAVFLDPFDACGLIVAKYFSLPSVVFARGIFCHYLEEGAQCPAPLSYVPRLLLGFSDAMTFKERVWNHIMHLEEHLFCPYFFKNVLEIASEILQTPVTAYDLYSHTSIWLLRTDFVLEYPKPVMPNMIFIGGINCHQGKPVPMEFEAYINASGEHGIVVFSLGSMVSEIPEKKAMAIADALGKIPQTVLWRYTGTRPSNLANNTILVKWLPQNDLLGHPMTRAFITHAGSHGVYESICNGVPMVMMPLFGDQMDNAKRMETKGAGVTLNVLEMTSEDLENALKAVINDKSYKENIMRLSSLHKDRPVEPLDLAVFWVEFVMRHKGAPHLRPAAHDLTWYQYHSLDVIGFLLAVVLTVAFITFKCCAYGYRKCLGKKGRVKKAHKSKTH
B2: in series [1], the K0.5 is listed as 33.2±4.0(24.9–41.6) uM and the Vmax turned out to be 0.00015 µmol/min/mg.

B3: UGT2B7 (Homo sapiens) (protein)
chain: GKVLVWAAEYSHWMNIKTILDELIQRGHEVTVLASSASILFDPNNSSALKIEIYPTSLTKTELENFIMQQIKRWSDLPKDTFWLYFSQVQEIMSIFGDITRKFCKDVVSNKKFMKKVQESRFDVIFADAIFPCSELLAELFNIPFVYSLSFSPGYTFEKHSGGFIFPPSYVPVVMSELTDQMTFMERVKNMIYVLYFDFWFEIFDMKKWDQFYSEVLGRPTTLSETMGKADVWLIRNSWNFQFPYPLLPNVDFVGGLHCKPAKPLPKEMEDFVQSSGENGVVVFSLGSMVSNMTEERANVIASALAQIPQKVLWRFDGNKPDTLGLNTRLYKWIPQNDLLGHPKTRAFITHGGANGIYEAIYHGIPMVGIPLFADQPDNIAHMKARGAAVRVDFNTMSSTDLLNALKRVINDPSYKENVMKLSRIQHDQPVKPLDRAVFWIEFVMRHKGAKHLRVAAHDLTWFQYHSLDVIGFLLVCVATVIFIVTKCCLFCFWKFARKAKKGKND
Turning to B3, in series [2], the K0.5 was 301±65(165–436) uM and the Vmax is 0.00028 µmol/min/mg.

B4: UGT2B15 (Homo sapiens) (protein)
chain: GKVLVWPTEYSHWINMKTILEELVQRGHEVTVLTSSASTLVNASKSSAIKLEVYPTSLTKNYLEDSLLKILDRWIYGVSKNTFWSYFSQLQELCWEYYDYSNKLCKDAVLNKKLMMKLQESKFDVILADALNPCGELLAELFNIPFLYSLRFSVGYTFEKNGGGFLFPPSYVPVVMSELSDQMIFMERIKNMIHMLYFDFWFQIYDLKKWDQFYSEVLGRPTTLFETMGKAEMWLIRTYWDFEFPRPFLPNVDFVGGLHCKPAKPLPKEMEEFVQSSGENGIVVFSLGSMISNMSEESANMIASALAQIPQKVLWRFDGKKPNTLGSNTRLYKWLPQNDLLGHPKTKAFITHGGTNGIYEAIYHGIPMVGIPLFADQHDNIAHMKAKGAALSVDIRTMSSRDLLNALKSVINDPVYKENVMKLSRIHHDQPMKPLDRAVFWIEFVMRHKGAKHLRVAAHNLTWIQYHSLDVIAFLLACVATVIFIITKFCLFCFRKLAKKGKKKKRD
B4: in series [2], the K0.5 is on record as 29.6±0.9(27.6–31.5) uM and the maximal velocity (Vmax) is 0.00083 µmol/min/mg.

B5: UGT1A1 (Homo sapiens) (protein)
chain: HAGKILLIPVDGSHWLSMLGAIQQLQQRGHEIVVLAPDASLYIRDGAFYTLKTYPVPFQREDVKESFVSLGHNVFENDSFLQRVIKTYKKIKKDSAMLLSGCSHLLHNKELMASLAESSFDVMLTDPFLPCSPIVAQYLSLPTVFFLHALPCSLEFEATQCPNPFSYVPRPLSSHSDHMTFLQRVKNMLIAFSQNFLCDVVYSPYATLASEFLQREVTVQDLLSSASVWLFRSDFVKDYPRPIMPNMVFVGGINCLHQNPLSQEFEAYINASGEHGIVVFSLGSMVSEIPEKKAMAIADALGKIPQTVLWRYTGTRPSNLANNTILVKWLPQNDLLGHPMTRAFITHAGSHGVYESICNGVPMVMMPLFGDQMDNAKRMETKGAGVTLNVLEMTSEDLENALKAVINDKSYKENIMRLSSLHKDRPVEPLDLAVFWVEFVMRHKGAPHLRPAAHDLTWYQYHSLDVIGFLLAVVLTVAFITFKCCAYGYRKCLGKKGRVKKAHKSKTH
For the molecule B5, in series [3], the K0.5 is listed as 101±11(78–123) uM. Moreover, in series [2], the K0.5 is reported as 72.6±6.9(58.2–87.0) uM and the Vmax turned out to be 0.00011 µmol/min/mg.

B6: UGT1A10 (Homo sapiens) (protein)
chain: GKLLVVPMDGSHWFTMQSVVEKLILRGHEVVVVMPEVSWQLERSLNCTVKTYSTSYTLEDQNREFMVFAHAQWKAQAQSIFSLLMSSSSGFLDLFFSHCRSLFNDRKLVEYLKESSFDAVFLDPFDTCGLIVAKYFSLPSVVFTRGIFCHHLEEGAQCPAPLSYVPNDLLGFSDAMTFKERVWNHIVHLEDHLFCQYLFRNALEIASEILQTPVTAYDLYSHTSIWLLRTDFVLDYPKPVMPNMIFIGGINCHQGKPLPMEFEAYINASGEHGIVVFSLGSMVSEIPEKKAMAIADALGKIPQTVLWRYTGTRPSNLANNTILVKWLPQNDLLGHPMTRAFITHAGSHGVYESICNGVPMVMMPLFGDQMDNAKRMETKGAGVTLNVLEMTSEDLENALKAVINDKSYKENIMRLSSLHKDRPVEPLDLAVFWVEFVMRHKGAPHLRPAAHDLTWYQYHSLDVIGFLLAVVLTVAFITFKCCAYGYRKCLGKKGRVKKAHKSKTH
Regarding B6, in series [1], the K0.5 is recorded as 56.7±2.3(51.9–61.5) uM and the Vmax was 0.00091 µmol/min/mg.

B7: UGT1A6 (Homo sapiens) (protein)
chain: DKLLVVPQDGSHWLSMKDIVEVLSDRGHEIVVVVPEVNLLLKESKYYTRKIYPVPYDQEELKNRYQSFGNNHFAERSFLTAPQTEYRNNMIVIGLYFINCQSLLQDRDTLNFFKESKFDALFTDPALPCGVILAEYLGLPSVYLFRGFPCSLEHTFSRSPDPVSYIPRCYTKFSDHMTFSQRVANFLVNLLEPYLFYCLFSKYEELASAVLKRDVDIITLYQKVSVWLLRYDFVLEYPRPVMPNMVFIGGINCKKRKDLSQEFEAYINASGEHGIVVFSLGSMVSEIPEKKAMAIADALGKIPQTVLWRYTGTRPSNLANNTILVKWLPQNDLLGHPMTRAFITHAGSHGVYESICNGVPMVMMPLFGDQMDNAKRMETKGAGVTLNVLEMTSEDLENALKAVINDKSYKENIMRLSSLHKDRPVEPLDLAVFWVEFVMRHKGAPHLRPAAHDLTWYQYHSLDVIGFLLAVVLTVAFITFKCCAYGYRKCLGKKGRVKKAHKSKTH
Regarding B7, the K0.5 in series [3] is listed as 8.07±0.48(7.08–9.06) uM. Further, in series [2], the K0.5 is 76.4±15.1(45.3–107.5) uM and the Vmax was 0.0052 µmol/min/mg.
